Measured values: patent US20180161335

What was measured:
[1] = target: ARF3, purified from E. coli, preloaded with BODIPY FL GDP (UniProt P61204)
[2] = test system: the other GTPases tested

Sequence of ARF3, purified from E. coli, preloaded with BODIPY FL GDP (P61204 whole entry): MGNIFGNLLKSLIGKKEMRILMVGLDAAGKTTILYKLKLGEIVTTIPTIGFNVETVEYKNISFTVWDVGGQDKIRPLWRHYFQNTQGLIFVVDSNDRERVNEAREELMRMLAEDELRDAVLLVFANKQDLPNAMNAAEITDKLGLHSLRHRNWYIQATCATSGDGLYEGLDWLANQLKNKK

Substance: C9ORF72 isoform A, 2x HA-tagged, in HEK cell lysate
- guanine exchange activity (BODIPY-GDP fluorescence) [1]: C9ORF72 isoforms A and B stimulated guanine exchange on ARF3
- guanine exchange activity (BODIPY-GDP fluorescence) [2]: Significant activity was not observed using both C9ORF72 isoforms on the other GTPases tested
